According to patent US20260001937A1, “NOVEL RECOMBINANT FIBRINOGEN VARIANTS FOR FIBRIN SEALANTS FOR SURGICAL WOUND CARE” (Julius-Maximilians-Universität Würzburg, priority 2022, published 2026):
Changes are numbered by the printed parent chain.

How the values were obtained:
[1] = biological target: T1, His-rFbg (recombinant fibrinogen, gamma-chain K88H, K111H, K382H, K399H)
T1 chain 1: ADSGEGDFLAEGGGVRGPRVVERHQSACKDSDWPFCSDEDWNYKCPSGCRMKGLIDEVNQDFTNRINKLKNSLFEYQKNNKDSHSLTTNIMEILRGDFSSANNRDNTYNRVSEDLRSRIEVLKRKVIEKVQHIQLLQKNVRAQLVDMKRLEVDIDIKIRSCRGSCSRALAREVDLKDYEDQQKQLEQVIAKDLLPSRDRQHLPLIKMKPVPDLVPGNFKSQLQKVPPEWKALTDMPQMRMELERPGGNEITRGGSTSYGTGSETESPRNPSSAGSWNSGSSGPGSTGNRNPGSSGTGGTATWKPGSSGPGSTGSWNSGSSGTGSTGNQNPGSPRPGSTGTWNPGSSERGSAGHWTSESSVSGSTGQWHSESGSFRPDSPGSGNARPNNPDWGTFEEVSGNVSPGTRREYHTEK
T1 chain 2: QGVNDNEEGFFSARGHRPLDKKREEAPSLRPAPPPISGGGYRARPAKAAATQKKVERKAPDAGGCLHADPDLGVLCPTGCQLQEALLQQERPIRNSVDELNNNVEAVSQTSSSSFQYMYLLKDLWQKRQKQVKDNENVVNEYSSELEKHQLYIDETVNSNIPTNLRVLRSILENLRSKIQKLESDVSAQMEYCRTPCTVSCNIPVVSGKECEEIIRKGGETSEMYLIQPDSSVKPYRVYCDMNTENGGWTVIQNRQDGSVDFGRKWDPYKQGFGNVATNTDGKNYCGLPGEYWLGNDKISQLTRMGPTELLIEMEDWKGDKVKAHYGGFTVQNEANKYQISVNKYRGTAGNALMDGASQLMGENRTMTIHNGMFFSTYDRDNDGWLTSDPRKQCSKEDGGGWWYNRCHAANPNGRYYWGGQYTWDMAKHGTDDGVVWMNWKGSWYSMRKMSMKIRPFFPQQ
T1 chain 3: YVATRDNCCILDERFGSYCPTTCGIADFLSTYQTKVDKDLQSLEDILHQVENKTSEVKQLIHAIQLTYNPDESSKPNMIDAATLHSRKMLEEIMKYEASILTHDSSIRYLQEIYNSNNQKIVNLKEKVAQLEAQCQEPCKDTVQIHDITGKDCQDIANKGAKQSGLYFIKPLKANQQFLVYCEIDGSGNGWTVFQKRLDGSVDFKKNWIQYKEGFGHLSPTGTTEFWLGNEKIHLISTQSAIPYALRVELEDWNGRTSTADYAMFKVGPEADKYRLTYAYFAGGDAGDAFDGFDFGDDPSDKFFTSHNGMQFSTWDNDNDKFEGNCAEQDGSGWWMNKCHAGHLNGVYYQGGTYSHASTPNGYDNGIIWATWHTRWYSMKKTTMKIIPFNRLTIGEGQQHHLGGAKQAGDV

[2] = biological target: T2, WT-Fbg (human fibrinogen, SigmaAldrich), P02671
T2 chain 1: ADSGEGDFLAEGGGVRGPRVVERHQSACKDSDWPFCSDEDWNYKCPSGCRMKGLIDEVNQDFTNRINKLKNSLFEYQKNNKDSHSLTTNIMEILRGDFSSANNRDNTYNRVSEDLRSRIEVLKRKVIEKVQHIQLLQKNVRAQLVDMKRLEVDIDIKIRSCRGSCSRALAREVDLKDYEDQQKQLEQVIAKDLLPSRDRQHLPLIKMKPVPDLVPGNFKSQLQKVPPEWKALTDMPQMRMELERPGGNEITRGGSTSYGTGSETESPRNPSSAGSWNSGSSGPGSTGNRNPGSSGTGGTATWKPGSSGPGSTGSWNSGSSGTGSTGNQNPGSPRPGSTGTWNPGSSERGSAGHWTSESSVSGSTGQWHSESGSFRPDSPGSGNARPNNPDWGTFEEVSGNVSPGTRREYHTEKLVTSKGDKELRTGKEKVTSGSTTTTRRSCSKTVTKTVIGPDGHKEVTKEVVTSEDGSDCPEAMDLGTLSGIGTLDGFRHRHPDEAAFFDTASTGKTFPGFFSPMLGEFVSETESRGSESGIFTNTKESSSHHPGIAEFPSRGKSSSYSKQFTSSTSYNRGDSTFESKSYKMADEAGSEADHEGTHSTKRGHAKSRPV
T2 chain 2: T1 chain 2
T2 chain 3: T1 chain 3 with H62K, H85K, H356K, H373K

[3] = biological target: T3, synthetic gamma-chain peptide ATW(K)TRW with K changed to serine
T3 chain: ATWSTRW

[4] = biological target: T4, Ala-rFbg (recombinant fibrinogen, gamma-chain K88A, K111A, K382A, K399A)
T4 chain 1: T1 chain 1
T4 chain 2: T1 chain 2
T4 chain 3: T1 chain 3 with H62A, H85A, H356A, H373A

[5] = biological target: T5, synthetic gamma-chain peptide TYS(K)AST with K changed to serine
T5 chain: TYSSAST

B1: human plasmin (Merck) (protein)
chain: KVYLSECKTGNGKNYRGTMSKTKNGITCQKWSSTSPHRPRFSPATHPSEGLEENYCRNPDNDPQGPWCYTTDPEKRYDYCDILECEEECMHCSGENYDGKISKTMSGLECQAWDSQSPHAHGYIPSKFPNKNLKKNYCRNPDRELRPWCFTTDPNKRWELCDIPRCTTPPPSSGPTYQCLKGTGENYRGNVAVTVSGHTCQHWSAQTPHTHNRTPENFPCKNLDENYCRNPDGKRAPWCHTTNSQVRWEYCKIPSCDSSPVSTEQLAPTAPPELTPVVQDCYHGDGQSYRGTSSTTTTGKKCQSWSSMTPHRHQKTPENYPNAGLTMNYCRNPDADKGPWCFTTDPSVRWEYCNLKKCSGTEASVVAPPPVVLLPDVETPSEEDCMFGNGKGYRGKRATTVTGTPCQDWAAQEPHRHSIFTPETNPRAGLEKNYCRNPDGDVGGPWCYTTNPRKLYDYCDVPQCAAPSFDCGKPQVEPKKCPGRVVGGCVAHPHSWPWQVSLRTRFGMHFCGGTLISPEWVLTAAHCLEKSPRPSSYKVILGAHQEVNLEPHVQEIEVSRLFLEPTRKDIALLKLSSPAVITDKVIPACLPSPNYVVADRTECFITGWGETQGTFGAGLLKEAQLPVIENKVCNRYEFLNGRVQSTELCAGHLAGGTDSCQGDSGGPLVCFEKDKYILQGVTSWGLGCARPNKPGVYVRVSRFVTWIEGVMRNN
plasmin cleavage analysis of target sites (peptide fragments detected by MS) [1]: Position 382 shows a partial cleavage for the mutants (both cleaved and non-cleaved peptides detected) | plasmin cleavage at the mutated gamma-chain sites 88, 111, 382, 399, high-resolution ESI-MS after 24 h digest in solution [1]: no cleavage was detected in either of the two mutants for all 4 mutations | plasmin cleavage sites in the gamma-chain, high-resolution ESI-MS after 24 h digest in solution (0.5 U/mL plasmin) [2]: the 4 different cleavage sites K88, K111, K382, K399 in the WT could be detected | plasmin cleavage efficiency of synthetic peptide, HPLC [3]: Peptide sequences including S instead of K showed a significant reduction in cleavage efficiency compared to the original sequences | plasmin cleavage analysis of target sites (peptide fragments detected by MS) [4]: Position 382 shows a partial cleavage for the mutants (both cleaved and non-cleaved peptides detected) | plasmin cleavage at the mutated gamma-chain sites 88, 111, 382, 399, high-resolution ESI-MS after 24 h digest in solution [4]: no cleavage was detected in either of the two mutants for all 4 mutations | plasmin cleavage efficiency of synthetic peptide, HPLC [5]: Peptide sequences including S instead of K showed a significant reduction in cleavage efficiency compared to the original sequences
